Laboratory results: PMC6925194

B1: ASCT2 (Alanine, Serine, Cysteine Transporter 2; SLC1A5): N163H (protein)
parent chain: MVADPPRDSKGLAAAEPTANGGLALASIEDQGAAAGGYCGSRDQVRRCLRANLLVLLTVVAVVAGVALGLGVSGAGGALALGPERLSAFVFPGELLLRLLRMIILPLVVCSLIGGAASLDPGALGRLGAWALLFFLVTTLLASALGVGLALALQPGAASAAINASVGAAGSAENAPSKEVLDSFLDLARNIFPSNLVSAAFRSYSTTYEERNITGTRVKVPVGQEVEGMNILGLVVFAIVFGVALRKLGPEGELLIRFFNSFNEATMVLVSWIMWYAPVGIMFLVAGKIVEMEDVGLLFARLGKYILCCLLGHAIHGLLVLPLIYFLFTRKNPYRFLWGIVTPLATAFGTSSSSATLPLMMKCVEENNGVAKHISRFILPIGATVNMDGAALFQCVAAVFIAQLSQQSLDFVKIITILVTATASSVGAAGIPAGGVLTLAIILEAVNLPVDHISLILAVDWLVDRSCTVLNVEGDALGAGLLQNYVDRTESRSTEPELIQVKSELPLDPLPVPTEEGNPLLKHYRGPAGDATVASEKESVM
B2: ASCT2 (Alanine, Serine, Cysteine Transporter 2; SLC1A5): N212H (protein)
parent chain: B1 parent chain
B3: ASCT2 (Alanine, Serine, Cysteine Transporter 2; SLC1A5): N163H/N212H (protein)
parent chain: B1 parent chain

experiment: CHO co-transfection, flow cytometry fusion index; settings: glycan lost; control: wild-type ASCT2

Protein	other: SYN1-induced cell-cell fusion
B1	no change
B2	no change
B3	no change
